What is called Kd is the equilibrium constant for the complex coming apart. A lower Kd goes with tighter binding.

The target of one data set is T1, U2AF65 1,2 (RRM1-RRM2, wild-type linker) (Homo sapiens, UniProt P26368 148-336). Nature of the data set: SPR. A general note: In SPR one partner is held on a chip, and binding of the other changes the refractive index at the surface.
T1 sequence (P26368 148-336, one chain of several): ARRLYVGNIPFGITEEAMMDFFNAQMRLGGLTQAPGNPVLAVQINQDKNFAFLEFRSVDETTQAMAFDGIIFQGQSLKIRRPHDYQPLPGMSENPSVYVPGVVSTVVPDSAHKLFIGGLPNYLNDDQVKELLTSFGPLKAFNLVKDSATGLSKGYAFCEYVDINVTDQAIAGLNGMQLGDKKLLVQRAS
With CCCUUUUUUUUCC (ssRNA) [rAdML13], the affinity, expressed as Kd, was 12.5 ± 1.6 µM.

For the next data set, the target named is U2AF65 1,2 MUT (Homo sapiens, UniProt P26368 148-336, D293N;K329Q;L331K;Q333E). Nature of the data set: SPR.
U2AF65 1,2 MUT, sequence (P26368 148-336 D293N/K329Q/L331K/Q333E, one chain of several): as the sequence (P26368 148-336, one chain of several) above, with D146N, K182Q, L184K, Q186E counted along it
The molecule CCUUUUCCCCCCC (ssRNA) [5'-4rU] showed a Kd of 14 ± 1.6 µM.

Regarding CCCCCCCUUUUCC (ssRNA) [3'-4rU], the Kd stood at 12.5 ± 1.3 µM.

The next data set addresses T1, U2AF65 1,2 (RRM1-RRM2, wild-type linker). Kind of data set: SPR. This is another data set of the same source.
CCCCCCUUUUUCC (ssRNA) [3'-5rU] had a Kd of 45.2 ± 3.4 µM. CCCCCCCCUUUCC (ssRNA) [3'-3rU] showed a Kd of 89.5 ± 3.9 µM. As to CCUUUUCCCCCCC (ssRNA) [5'-4rU], the Kd came to 14.3 ± 0.6 µM. This Kd is about 6.3-fold lower than that of the molecule before. For the molecule UUUUUUUUUUUUU (ssRNA) [rU13], binding was characterised by a dissociation constant (Kd) of 13.1 ± 0.9 µM. Consider CCCUUUCUUCUCC (ssRNA) [rC(7,10)], for which binding was put at a Kd of 14.5 ± 0.9 µM.

Molecule CCUUUCCCCCCCC (ssRNA) [5'-3rU] registered a Kd of 22 ± 0.9 µM.

As for CCUCUCUUCCCCC (ssRNA) [rU(3)C(4,6,9,10,11)], binding was put at a Kd of 14.4 ± 1.1 µM. Still for that read-out and setting: then CCCCCUUCUCUCC (ssRNA) [rC(4,5,8,10)], with 27.9 ± 1.3 µM; and CCCCCCCUUUUCC (ssRNA) [3'-4rU], with 69.4 ± 3.1 µM; and CCCUCUUUUUUCC (ssRNA) [rC(5)], with 13.9 ± 1 µM.

In turn, CCCUUUUUUCUCC (ssRNA) [rC(10)] returned a Kd of 11.9 ± 0.8 µM.

In turn, CCCUUUCUCUUCC (ssRNA) [rC(7,9)] came in with a Kd of 11 ± 0.6 µM. Consider CCCUUUCUCCUCC (ssRNA) [rC(7,9,10)], for which the Kd was 11.6 ± 0.8 µM. Regarding CCCUUUUUCUUCC (ssRNA) [rC(9)], the Kd was found to be 13.7 ± 1.3 µM. Turning to CCCUUUCUUUUCC (ssRNA) [rC(7)], the Kd was determined as 9.3 ± 0.4 µM. This Kd and that of the molecule before are within 1.5-fold of each other. On the same count and under the same terms, the same measure for CCUUUUUCCCCCC (ssRNA) [5'-5rU]: 14.4 ± 0.8 µM.
